From patent publication US20230056252A1 (Gilead, published 2023) come the findings set out here.

By EC50 is commonly meant the concentration that produces a half-maximal response.

The target in experiment [1] is T1, CD3 expressed on cell-surface of primary human T cells (human, UniProt P07766 23-207; P04234 22-171). Description: cell-based or functional assay.
Experiment [2] addresses T1, CD3 expressed on cell-surface of …. Description: flow cytometry on human PBMCs, CD4+ cells, donor 3761. For orientation: Flow cytometry measures light scatter and fluorescence of single cells or particles in a stream.
Description: (§1) Briefly, peripheral blood mononuclear cells (PBMCs) were incubated with different concentrations of HIV×CD3 bispecific molecules for 1 hour at RT. […] Cells were then washed, fixed/permeabilized, and analyzed using BD LSRFortessa according to the manufacturer's protocol. The percentage of α-huIgG-APC-positive CD4+ and CD8+ T cells and the mean fluorescence intensity of the α-huIgG-APC of CD4+ and CD8+ cells were collected, and data analyzed using GraphPad Prism.
(§2) Binding experiments were performed using PBMCs from two healthy human donors.
For experiment [3] the target is unchanged. Description: flow cytometry on human PBMCs, CD4+ cells, donor 4574.
Description: as §1, §2
The target is the same in experiment [4]. The experiment in a line: flow cytometry on human PBMCs, CD8+ cells, donor 3761.
Description: as §1, §2
The target is the same in experiment [5]. Description: flow cytometry on human PBMCs, CD8+ cells, donor 4574.
Description: as §1, §2
Experiment [6] has the same target. The experiment in a line: flow cytometry on PBMCs, % anti-huIgG+ CD4+ cells, donor hu 151.
For experiment [7] the target is unchanged. Description: flow cytometry on PBMCs, % anti-huIgG+ CD4+ cells, donor hu 340.
Description: (§3) Briefly, PBMCs from healthy human donors and healthy rhesus or cynomolgus monkey donors were incubated with different concentrations of HIV×CD3 bispecific molecules for 1 hour at RT. […] Cells were then washed, fixed/permeabilized, and analyzed on BD LSRFortessa. The percentage of α-huIgG-APC-positive CD4+ and CD8+ T cells and the mFI of the α-huIgG-APC of CD4+ and CD8+ cells were collected, and data analyzed using GraphPad Prism.
Experiment [8] shares this target. The experiment in a line: flow cytometry on PBMCs, % anti-huIgG+ CD8+ cells, donor hu 151.
Description: as §3
For experiment [9] the target is unchanged. Description: flow cytometry on PBMCs, % anti-huIgG+ CD8+ cells, donor hu 340.
Description: as §3
The target of experiment [10] is CD3 on rhesus monkey T cells in PBMCs (rhesus monkey). Description: flow cytometry on PBMCs, % anti-huIgG+ CD4+ cells, donor rh 3483.
Sequence of CD3 on rhesus monkey T cells in PBMCs (rhesus monkey) (P16003 26-458): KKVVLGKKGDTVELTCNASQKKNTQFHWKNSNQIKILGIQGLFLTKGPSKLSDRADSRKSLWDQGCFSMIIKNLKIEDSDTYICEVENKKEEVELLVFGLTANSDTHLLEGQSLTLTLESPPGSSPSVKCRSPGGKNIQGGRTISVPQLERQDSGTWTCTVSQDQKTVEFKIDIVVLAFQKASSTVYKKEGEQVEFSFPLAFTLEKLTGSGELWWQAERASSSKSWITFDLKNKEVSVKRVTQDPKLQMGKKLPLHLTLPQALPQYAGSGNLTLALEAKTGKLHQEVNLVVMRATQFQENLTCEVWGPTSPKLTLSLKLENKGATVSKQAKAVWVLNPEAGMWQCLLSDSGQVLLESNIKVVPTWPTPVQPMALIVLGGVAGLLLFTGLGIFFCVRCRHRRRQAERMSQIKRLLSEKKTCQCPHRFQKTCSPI
Experiment [11] shares this target. Description: flow cytometry on PBMCs, % anti-huIgG+ CD4+ cells, donor rh 3563.
For experiment [12] the target is unchanged. Description: flow cytometry on PBMCs, % anti-huIgG+ CD8+ cells, donor rh 3483.
Experiment [13] shares this target. Description: flow cytometry on PBMCs, % anti-huIgG+ CD8+ cells, donor rh 3563.
Experiment [14] has as its target T2, MabSelect SuRe (engineered Protein A).
T2 construct: also called MabSelect SuRe column
Description: 500 ml Expi293 expression, MabSelect SuRe capture and cation exchange; purified homodimer yield relative to parent.
Description: 500 ml of Expi293 cells were transfected with 0.5 mg DNA encoding selected huSP34 scFv-Fc Protein A knockout variants according to manufacturer's protocol. Four days post transfection, the cell-free clarified supernatant was collected and loaded to a MabSelect™ SuRe™ (Cytiva Life Sciences) column. Afterwards the column was washed with a low salt buffer of 25 mM Tris HCl pH 7.5, 25 mM NaCl for 10 column volumes (CV), then high salt wash of 25 mM Tris HCl pH 7.5, 500 mM NaCl for 5CV to remove non-specific binding, and finally washed with a low salt wash of 25 mM Tris HCl pH 7.5, 25 mM NaCl for 10CV. To elute the antibody, an isocratic elution step of 100 mM sodium acetate pH 3.7 was performed. The eluted pool was neutralized to pH 6.0 with 1 M Tris HCl pH 9.0, and subjected to a cation ion purification, HiTrap SP HP (Cytiva Life Sciences) to further remove impurities. The cation captured protein was washed with 10 mM sodium phosphate pH 7.0 for 10CV, then eluted in 0-30% gradient of 10 mM sodium phosphate pH 7.0, 1M NaCl for 50CV to separate the desired two targeting arm antibody (heterodimer) from the one targeted arm antibody (homodimer). Followed with gradient elution from 30-100% of 10 mM sodium phosphate pH 7.0, 1 M NaCl for 10CV to remove aggregation or homodimer in higher isoelectric point (pI). All proteins were formulated into 20 mM histidine pH 5.8 by dialysis, added additive of sucrose/tween-80, sterile filtered, and stored at 4° C. Concentration of the formulated protein was measured by A280. Purity was assessed as percent monodispersed by analytical size-exclusion chromatography. Identity of the bispecific antibody was determined by Mass Spec (MS).

T1 sequence (P07766 23-207 limits assumed, chain 1 of 2): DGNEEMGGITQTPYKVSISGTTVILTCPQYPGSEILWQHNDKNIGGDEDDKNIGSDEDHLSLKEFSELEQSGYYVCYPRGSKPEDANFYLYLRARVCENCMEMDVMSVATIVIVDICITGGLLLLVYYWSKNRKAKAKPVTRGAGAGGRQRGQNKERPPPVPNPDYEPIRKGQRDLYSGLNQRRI
T1 sequence (P04234 22-171 limits assumed, chain 2 of 2): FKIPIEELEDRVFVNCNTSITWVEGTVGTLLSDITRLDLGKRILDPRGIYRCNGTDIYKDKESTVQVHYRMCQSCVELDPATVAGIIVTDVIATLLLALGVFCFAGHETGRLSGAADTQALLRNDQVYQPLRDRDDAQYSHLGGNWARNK

B1: hPGT121.66 AAS + W/huSP34.1.3 scFv AAS + SAV + RF (bispecific antibody, human IgG1, lambda, L234A L235A)
chain: not shown
heavy: QMQLQESGPGLVKPSETLSLTCSVSGASISDSYWSWIRRSPGKGLEWIGYVHKSGDTNYNPSLKSRVHLSLDTSKNQVSLSLTGVTAADSGKYYCARTLHGRRIYGIVAFNEWFTYFYMDVWGTGTQVTVSSASTKGPSVFPLAPSSKSTSGGTAALGCLVKDYFPEPVTVSWNSGALTSGVHTFPAVLQSSGLYSLSSVVTVPSSSLGTQTYICNVNHKPSNTKVDKKVEPKSCDKTHTCPPCPAPEAAGGPSVFLFPPKPKDTLMISRTPEVTCVVVDVSHEDPEVKFNWYVDGVEVHNAKTKPREEQYNSTYRVVSVLTVLHQDWLNGKEYKCKVSNKALPASIEKTISKAKGQPREPQVYTLPPSREEMTKNQVSLWCLVKGFYPSDIAVEWESNGQPENNYKTTPPVLDSDGSFFLYSKLTVDKSRWQQGNVFSCSVMHEALHNHYTQKSLSLSPGK
light: not shown
As for B1, in experiment [1], the “killing EC50, primary HIV-infected CD4+ cells, PBMC effector cells, isolate 657” value (“killing EC50 … isolate 657” for short) stood at 1.61 µg/mL. In addition, the “killing EC50, primary HIV-infected CD4+ cells, PBMC effector cells, isolate 7552” value (“killing EC50 … isolate 7552” for short) in experiment [1] turned out to be 0.107 µg/mL. Besides, the EC50 in [2] turned out to be 0.32 µg/mL; in [3] it was 0.33 µg/mL; in experiment [4], 0.36 µg/mL; in experiment [5], 0.35 µg/mL; in [6] it was 0.41 µg/mL; in experiment [7], 0.42 µg/mL. The EC50 was found to be 0.44 µg/mL in [8]; 0.68 µg/mL in experiment [9]; 0.33 µg/mL in [10]; 0.4 µg/mL in experiment [11]; 0.55 µg/mL in experiment [12]; 1.02 µg/mL in [13].

B2: hPGT121.66 AAS + W/huSP34.3.4 scFv AAS + SAV + RF (bispecific antibody, human IgG1, lambda, L234A L235A)
chain: EVQLVESGGGLVQPGGSLRLSCAASGFTFNTYAMNWVRQAPGKGLEWVGRIRSKYNNYATYYADSVKGRFTISRDDSKNSLYLQMNSLRTEDTAVYYCVRHGNFGHSYVSWFAYWGQGTLVTVSSGGGGSGGGGSGGGGSGGGGSQAVVTQEPSLTVSPGGTVTLTCGSSTGAVTTSHYANWVQQKPGQAPRGLIGGTSKRAPWTPARFSGSLLGGKAALTLSGAQPEDEAEYYCALWYSALWVFGGGTKLTVLEPKSSDKTHTCPPCPAPEAAGGPSVFLFPPKPKDTLMISRTPEVTCVVVDVSHEDPEVKFNWYVDGVEVHNAKTKPREEQYNSTYRVVSVLTVLHQDWLNGKEYKCKVSNKALPASIEKTISKAKGQPREPQVYTLPPSREEMTKNQVSLSCAVKGFYPSDIAVEWESNGQPENNYKTTPPVLDSDGSFFLVSKLTVDKSRWQQGNVFSCSVMHEALHNRFTQKSLSLSPGK
heavy: QMQLQESGPGLVKPSETLSLTCSVSGASISDSYWSWIRRSPGKGLEWIGYVHKSGDTNYNPSLKSRVHLSLDTSKNQVSLSLTGVTAADSGKYYCARTLHGRRIYGIVAFNEWFTYFYMDVWGTGTQVTVSSASTKGPSVFPLAPSSKSTSGGTAALGCLVKDYFPEPVTVSWNSGALTSGVHTFPAVLQSSGLYSLSSVVTVPSSSLGTQTYICNVNHKPSNTKVDKKVEPKSCDKTHTCPPCPAPEAAGGPSVFLFPPKPKDTLMISRTPEVTCVVVDVSHEDPEVKFNWYVDGVEVHNAKTKPREEQYNSTYRVVSVLTVLHQDWLNGKEYKCKVSNKALPASIEKTISKAKGQPREPQVYTLPPSREEMTKNQVSLWCLVKGFYPSDIAVEWESNGQPENNYKTTPPVLDSDGSFFLYSKLTVDKSRWQQGNVFSCSVMHEALHNHYTQKSLSLSPGK
light: not shown
notes: also called 258
With B2, the EC50 worked out at 5.1 µg/mL in experiment [2], 5.7 µg/mL in experiment [3], 1.3 µg/mL in [4] and 4.8 µg/mL in experiment [5].

B3: hPGT121.66 AAS + W/huSP34.13.10 scFv AAS + SAV + RF (bispecific antibody, human IgG1, lambda, L234A L235A)
chain: EVQLVESGGGLVQPGGSLRLSCAASGFTFSTYAMNWVRQAPGKGLEWVGRIRSKYNNYATYYAASVKGRFTISRDDSKNTLYLQMNSLRTEDTAVYYCVRHGNFGHSYVSWFAYWGQGTLVTVSSGGGGSGGGGSGGGGSGGGGSQAVVTQPPSLTVSPGGTVTLTCGSSTGAVTTGHYANWVQQKPGQAPRGLIGGTNKRAPGVPARFSGSLSGGKAALTISGAQPEDEAEYYCALWYSNRWVFGGGTKLTVLEPKSSDKTHTCPPCPAPEAAGGPSVFLFPPKPKDTLMISRTPEVTCVVVDVSHEDPEVKFNWYVDGVEVHNAKTKPREEQYNSTYRVVSVLTVLHQDWLNGKEYKCKVSNKALPASIEKTISKAKGQPREPQVYTLPPSREEMTKNQVSLSCAVKGFYPSDIAVEWESNGQPENNYKTTPPVLDSDGSFFLVSKLTVDKSRWQQGNVFSCSVMHEALHNRFTQKSLSLSPGK
heavy: QMQLQESGPGLVKPSETLSLTCSVSGASISDSYWSWIRRSPGKGLEWIGYVHKSGDTNYNPSLKSRVHLSLDTSKNQVSLSLTGVTAADSGKYYCARTLHGRRIYGIVAFNEWFTYFYMDVWGTGTQVTVSSASTKGPSVFPLAPSSKSTSGGTAALGCLVKDYFPEPVTVSWNSGALTSGVHTFPAVLQSSGLYSLSSVVTVPSSSLGTQTYICNVNHKPSNTKVDKKVEPKSCDKTHTCPPCPAPEAAGGPSVFLFPPKPKDTLMISRTPEVTCVVVDVSHEDPEVKFNWYVDGVEVHNAKTKPREEQYNSTYRVVSVLTVLHQDWLNGKEYKCKVSNKALPASIEKTISKAKGQPREPQVYTLPPSREEMTKNQVSLWCLVKGFYPSDIAVEWESNGQPENNYKTTPPVLDSDGSFFLYSKLTVDKSRWQQGNVFSCSVMHEALHNHYTQKSLSLSPGK
light: not shown
With B3, in experiment [1], the “killing EC50 … isolate 657” value turned out to be 0.275 µg/mL. The “killing EC50 … isolate 7552” value in experiment [1] is 0.011 µg/mL. Also, the EC50 in experiment [2] amounted to 0.045 µg/mL; in experiment [3], 0.037 µg/mL; in experiment [4], 0.095 µg/mL; in experiment [5], 0.062 µg/mL.

B4: hPGT121.66 AAS + W/huSP34.3.6scFv AAS + SAV + RF (bispecific antibody, human IgG1, lambda, L234A L235A)
chain: EVQLVESGGGLVQPGGSLRLSCAASGFTFNTYAMNWVRQAPGKGLEWVGRIRSKYNNYATYYADSVKGRFTISRDDSKNSLYLQMNSLRTEDTAVYYCVRHGNFGHSYVSWFAYWGQGTLVTVSSGGGGSGGGGSGGGGSGGGGSQAVVTQPPSLTVSPGGTVTLTCGSSTGAVTTGHYANWVQQKPGQAPRGLIGGTSNRAPGVPARFSGSLSGGKAALTISGAQPEDEAEYYCALWYSARWVFGGGTKLTVLEPKSSDKTHTCPPCPAPEAAGGPSVFLFPPKPKDTLMISRTPEVTCVVVDVSHEDPEVKFNWYVDGVEVHNAKTKPREEQYNSTYRVVSVLTVLHQDWLNGKEYKCKVSNKALPASIEKTISKAKGQPREPQVYTLPPSREEMTKNQVSLSCAVKGFYPSDIAVEWESNGQPENNYKTTPPVLDSDGSFFLVSKLTVDKSRWQQGNVFSCSVMHEALHNRFTQKSLSLSPGK
heavy: QMQLQESGPGLVKPSETLSLTCSVSGASISDSYWSWIRRSPGKGLEWIGYVHKSGDTNYNPSLKSRVHLSLDTSKNQVSLSLTGVTAADSGKYYCARTLHGRRIYGIVAFNEWFTYFYMDVWGTGTQVTVSSASTKGPSVFPLAPSSKSTSGGTAALGCLVKDYFPEPVTVSWNSGALTSGVHTFPAVLQSSGLYSLSSVVTVPSSSLGTQTYICNVNHKPSNTKVDKKVEPKSCDKTHTCPPCPAPEAAGGPSVFLFPPKPKDTLMISRTPEVTCVVVDVSHEDPEVKFNWYVDGVEVHNAKTKPREEQYNSTYRVVSVLTVLHQDWLNGKEYKCKVSNKALPASIEKTISKAKGQPREPQVYTLPPSREEMTKNQVSLWCLVKGFYPSDIAVEWESNGQPENNYKTTPPVLDSDGSFFLYSKLTVDKSRWQQGNVFSCSVMHEALHNHYTQKSLSLSPGK
light: not shown
notes: also called 259
Consider B4, for which the “killing EC50 … isolate 657” value in experiment [1] turned out to be 2.37 µg/mL. For the same molecule, the “killing EC50 … isolate 7552” value in experiment [1] was determined as 0.123 µg/mL. Further, the EC50 is 0.65 µg/mL in experiment [2], 1.4 µg/mL in experiment [3], 0.48 µg/mL in experiment [4] and 1.1 µg/mL in experiment [5].

B5: huSP34.33.8 scFv AAS + SAV + R (Fc fusion)
chain: EVQLVESGGGLVQPGGSLRLSCAASGFTFSTYAMNWVRQAPGKGLEWVGRIRSKYNNYATYYAASVKSRFTISRDDSKNTLYLEMNSLRTEDTAVYYCVRHGNFGHSYVSWFAYWGQGTLVTVSSGGGGSGGGGSGGGGSGGGGSQAVVTQEPSLTVSPGGTVTLTCGSSTGAVTTGHYANWVQQKPGQAPRGLIGGTNKRAPGVPARFSGSLLGGKAALTISGAQPEDEAEYYCALWYSNRWVFGGGTKLTVLEPKSSDKTHTCPPCPAPEAAGGPSVFLFPPKPKDTLMISRTPEVTCVVVDVSHEDPEVKFNWYVDGVEVHNAKTKPREEQYNSTYRVVSVLTVLHQDWLNGKEYKCKVSNKALPASIEKTISKAKGQPREPQVYTLPPSREEMTKNQVSLSCAVKGFYPSDIAVEWESNGQPENNYKTTPPVLDSDGSFFLVSKLTVDKSRWQQGNVFSCSVMHEALHNRYTQKSLSLSPGK
notes: also called G65S, Q81E; G65S + Q81E
As for B5, in experiment [14], the “scFv-Fc Homodimer Yield Relative to WT (e.g. Protein A binding)” value came to 0.7%.
